Assay [1] addresses TGFβ3 (transforming growth factor beta 3) (UniProt P10600). Kind of assay: cell-based or functional assay.
The target in assay [2] is human TGFβ1 (transforming growth factor beta 1) (human) (UniProt P01137). Kind of assay: cell-based or functional assay.
The target of assay [3] is human TGFβ2 (transforming growth factor beta 2) (human) (UniProt P61812). Description: cell-based or functional assay.
Assay [4] has as its target human TGFβ1 (transforming growth factor beta 1) (human) (UniProt P01137). Kind of assay: A549 cell radioreceptor assay, inhibition of 125I-TGFβ1 binding to receptors.
In assay [5] the target is human TGFβ2 (transforming growth factor beta 2) (human) (UniProt P61812). Kind of assay: A549 cell radioreceptor assay, inhibition of 125I-TGFβ2 binding to receptors.
In assay [6] the target is TGFβ3 (transforming growth factor beta 3) (UniProt P10600). Kind of assay: A549 cell radioreceptor assay, inhibition of 125I-TGFβ3 binding to receptors.
Sequence of TGFβ3 (transforming growth factor beta 3) (P10600 301-412 limits assumed): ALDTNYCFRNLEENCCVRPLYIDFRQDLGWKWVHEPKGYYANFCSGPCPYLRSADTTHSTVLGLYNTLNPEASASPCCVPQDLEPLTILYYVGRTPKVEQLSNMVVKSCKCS

Sequence of human TGFβ2 (transforming growth factor beta 2) (human) (P61812 303-414): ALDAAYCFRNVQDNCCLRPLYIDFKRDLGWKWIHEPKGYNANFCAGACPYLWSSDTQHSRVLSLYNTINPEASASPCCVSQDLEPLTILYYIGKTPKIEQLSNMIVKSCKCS
Sequence of human TGFβ1 (transforming growth factor beta 1) (human) (P01137 279-390 limits assumed): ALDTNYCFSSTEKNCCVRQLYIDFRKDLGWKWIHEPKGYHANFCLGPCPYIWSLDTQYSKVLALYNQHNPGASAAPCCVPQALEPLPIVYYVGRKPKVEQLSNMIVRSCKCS

Take “mouse monoclonal antibody from Genzyme (Mouse anti-TGF β1,2,3; J.R. Dasch et al.)”: the TF1 cell proliferation assay IC50 (nM IgG) is 0.1 nM in assay [1], 1.5 nM in assay [2] and 10 nM in assay [3]. Also, the IC50 came out at 0.55 nM in assay [4], 0.5 nM in assay [5] and 0.03 nM in assay [6].

The term IC50 denotes the concentration needed to halve the response being measured. A low value points to greater potency in that assay.

These data come from patent EP0853661B1.
